From the nanobody polyreactivity screen of Harvey et al. (2022)

Assay: yeast display, Sf9 membrane polyspecificity reagent, FACS + sequencing; frameworks hold sequencing errors
How it was run: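 Galactose-induced (36–48 hours) yeast carrying a synthetic nanobody display library were exposed to 10% biotinylated, detergent-solubilized Sf9 membrane reagent at 4 °C for 1 hour. FACS followed streptavidin microbead enrichment, using low and high (top ~1%) gates for expression (anti-HA) and reagent binding (streptavidin). Colony PCR, MiSeq 2 × 250 sequencing and CDR-length filtering followed. Labels for polyreactivity reflect the gate of origin.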

| Sequence | polyreactivity (PSR sort gate) |
| --- | --- |
| QVQLVESGGGLVQAGGSLRLTCAASGRIFGLYAMGWSRQAPGKERELVAAISVISTGTYYADSVKGRFTISRDNAKNTVYLQMNSLKPEDTAVYYCNADSGQYTPPESDYWGQGTQVTVSS | low polyreactivity |
| QVQLVESGGGLVQAGGSLRLNSAASGIIFPRYAMGWYSQAPGKEWEVVAGFTSSGGTYYADSVKGRFTISRDHAKNTVYLQMNSLIPEDTAVYYCAARQGNLRRGVRWFNYWGQGTQVTVSS | high polyreactivity |
| QVQLVESGGGLVQAGGSLRISCAASGSIFASNTMGWYRQARGTERELVAGITKIGSSTYYADSVTGRFTISRDNAKNTVYLKMNSLKPEDTAVYYCNAYGPNIYSSRYDYWGQGTQVTVSS | low polyreactivity |
| QVQLVESGGGLVQAGGSLRLSCAASGRIFVINAMGWYRQAPGKERELVAAISSSGGSTSYADSVKGRFTISRDNAKNTVYFQMNSLKPEDTAVYYCAAKPRVRRVDGYYWGQGTQVTVSS | high polyreactivity |
| QVQLVESGGGLVQAGGSLRLSCASSGSIFEANAMGWYRQAPGIESELVAAISTTGGNTYYADSVKGRFTISRDNAKNTVYLQMNSLKPEDTAVYYCAADPSQPRIDSSNYDYWGQGTQVTVSS | low polyreactivity |
| QVQLVESGGDLVQAGGSLRLSCAASGSIFYINAMGWYRQAPGKERELVASISYSGTSTYYADSVKGRFTISRDNAKNTVYLQMNSLKPEDTAVYYCNSEDTPGAGDGYWGQGTQVTVSS | low polyreactivity |
| QVQLVESGGGLVQAGGSLRLSCAASGRTFYRNAMGWYRQAPGKERELVAAITSSGASTYYADSVKGRFTISRDNAKNTVYLQMNSLKPEDTAVYYCAAKYVYSVGNYRYDYWGQGTQVTVSS | low polyreactivity |
| QVQLVESGGGLVQAGGSLRLSCSASGRTSDYYAMGWYRQAPGKERELVAAITSGGSTYYADSVKGRFTISRDNAKITVYFQMNSLKPEDTAVYYCAATWYWGWVFSYTSFDYWGLGTQVTVSS | low polyreactivity |
| QVQLVESGGGLVQAGGSLRLSCAASGSTFVDKAMGWYRQAPGKERELVATISSGGSTYYADSVKGRFTISRDNAKNTVYLQMNSLKPEDTAVYYCNADGNKRYPWVDYWGQGTQVTVSS | low polyreactivity |
| QVQLVESGGGLVQAGGSLRLSCAASGRTFYSYAMGWYRQAPGKERELVAAITWRGVRTYYADSVKGRFTISRDNAKNTVYLQMNSLKPEDTAVYYCAAGGVRTRSWDTSLINRYGYWGQGTQVTVSS | high polyreactivity |
| QVQLVESGGGLVQAGGSLRLSCAASGRIFGYYAMGWYRQAPGKEREWVAAMSTNGGTTYYAYSVKGRFTISRDNAKNTVYLQMNSLKPEDTAVYYCAATYTVPGHARYDYWGQGTQVTVSS | low polyreactivity |
| QVQLVESGGGLVQAGGSLRLSCAASGYTFYYAMGWYRQAPGKERELVAAISAGGGRTYYADSVKGRFTISRDNAKNTDYLQMNSLKPEDTAVYYCNRVYRLTAYGYDYWGQGTQVTVSS | high polyreactivity |
| QVQLVESGGGLVQAGGSLRLSCAASGRIFGFYAMGWYRQAPGKERELVARITSGGRTTYADSVKGRFTISRDNAKNTVYLQMNSLKPEDTAVYYCAADARYHGFPKVYYYRGGYDYWGQGTQVTVSS | high polyreactivity |
| QVQLVESCGGLVQAGGSLRLSSAASGSIFEYNAMGWYRQEPGKERELVGAITSTDSTYADSVKGRFTISRDNAKNTVYLQMNSLKPEDTAVYYCAAEDVIYYLTGQWREYDYWGQGTQVTVSS | low polyreactivity |
| QVQLVESGGGLVQAGGSLRLSCAASGSTFRLNARGWYRQAPGKERELVASIRWSVGITYYADSVKGRFTISRDNAKNTVYLQMNSLKPEDTAVYYCATRDTTWRYYYWGQGTQVTVSS | high polyreactivity |
| QVQLVESGGGLVQAGGSLRLSCAASGSTFIPYAMGWYRQAPGKERELVAAIRGGDGSTYYADSVKGRFTISRDNAKNTVYLQMNSLKPEDTAVYYCAADTVITAYFYRFWRYNYWGQGTQVTVSS | low polyreactivity |
| QVQHVQSGGGLVQAGGSLRLSCAASGRTNPFYAMGWYRQAPGKERELVAAISSSAGRTYYADSVKGRFTISRDNAKNTFYFEMNSLKPEDTAVYYCAARLYGRYRYDYWGQGTQVTVSS | low polyreactivity |
| QVQLVESGGGLDQAGGSLRLSCAAYGITFGYYAMGWYRQAPGKERELVASITTRGGSTSYADSVKGRFTISRDNAKNTVYLQMNSLKPEDTAVYYCAARWRQRKSVRYGQQGYDYWGQGTQVTVSS | high polyreactivity |
| QVQLVESGGGLVQAGGSLRLSCAASGFTISKYAMGWYRQAPGKERELVAVISSGGRTNYADSVKGRFTISRDNAKNTVYLQMNSLKPEDTAVDYCAAIGWRTRSRFEYWGQGTQVTVSS | high polyreactivity |
| QVQLVESGGGLVQAGGSLRLSCAASGITFGANTMGWYRQAPGKERELVAAITISGGITHYADSVKGRFTISRDNAKNTVYLQMNSLKPEDTAVYYCAAGAYWRLYPYRQRNGGRMYYWGQGTQVTVSS | low polyreactivity |
| QVQLVESGGGLVQAGGSLRLSCAASGRTFYYNAMGWYRQAPGKERELVARITSSGGSTYYADSVKGRFTISRDNAKSTVYLQMNSLKPEDTAVSYCAAGRSRYLWFGRDFDYWGQGTQVTVSS | low polyreactivity |
| QVQLVESGGGLVQAGGSLRLSCAASGSTFTNYAMGWYRQAPRKERELVAAITSVGSTYYADSVKGRFTISRDNAKNTVYLQMNSLKQEDTAVYYCNVVYRDQYNYWGQGTQVTVSS | low polyreactivity |

| Sequence | polyreactivity (PSR sort gate) |
| --- | --- |
| QVQLVESGGGLVQAGGSLRLSCAASGFIFFLYAMGWYRQAPGKERELVARISGGGDSTSYADSVKGRFTISRDNAKNTVYLQMNSLKPEDTAVYYCAADVWGSGGELGYWGQGTQVTVSS | low polyreactivity |
| QVQLVESGGGLVQAGGSLRLSCAASGFTFTRYAMGWYRQAPGKERELVASISTSGGRTYYADSVKGRFTISRDNAKNTVYLQMNSLKPEDTAVYYCAASWNTQSRGWQYDYWGQGTQVTVSS | low polyreactivity |
| QVQLVESGGGLVQEGGSLRLSCAASGSTFAYNAKGWYRQAPGKERELVARISSSGDITYDADSVKGRFTISRDNAKNTVYLQMNSLKPEDTAVYYCAKRYLTRYKGYYYWGQGTQVTVSS | high polyreactivity |
| KVQLVESGGGLVQAGGSLRLSCAASGRTFRTYAMGWYRQAPGKERELVAANSSGGSTNYADSVKGRFTISRDNAKNTVYLQMNSLKPEDTSVYYCATRPTSDFVKRRVYEWLDYWGQGTQVTVSS | low polyreactivity |
| QVHLVESGGGLVQAGGSLRLSCAASGLTFYWYVMGWYRQAPGKERELVAVITGSGGSTYYADSVKGRFTISRDNAKNTVYLQMNSLKPEDTAAYYCARGGRYNRYYYWGQGTQVTVSS | high polyreactivity |
| QVQLVESGGGLVQAGGSLRLSCSASGLTFTKYAMGWYRQAPGKEREFVATITSGGSTNYADSVKGRFTISRDNAKNTVYLQMNSLKPEDTAVYYCNRDNYKWPYWEFDYWGQGTQVTVSS | high polyreactivity |
| QVQLVESGRGLVQAGGSLRLSCAASGRIFLYYAMGWYRQAPGKEREFVAAITYIGGSTYYADSVKGRFTISRDNAKNTVYLQMNSLKPEDTAVYWGQGTQVTVSS | low polyreactivity |
| QVQLVESGGGLVQAGGSLRLICAASGLIFWRNAMGWYRQAPGKERELVAAISRTGGNTYYADSVKGRFTISRDNAKNTVYLQMNSLKPEDTAVYYCAKDVGKGYGAYPLDYWGQGTQVTVSS | low polyreactivity |
| QVQLVDSGGGLVQAGGSLRLSCAASGSIFPGNPMGWYRQAPGKERELVAVIDFSGASTYYADSVKGRFTISRDNAKNTVYFQMNSLKPEDTADYWGQCTQVTVSS | low polyreactivity |
| QVQLVESGGGLVQAGGSLRLSCAASGRIFVFNDMGWYRQAPGKERELVAAISSGGNTYYADSVKGRFTISRDNAKNTVYLQMNSLKPEDTAVYYCAKVSRWSYKGSPYDYWGQGTQVTVSS | high polyreactivity |
| QVQLVESGGGLGQAGASLRLSCAASGLTFRYYALGWYRQAPGKLMELVAAISSRGASTYYADSVKGRITISRDNAKNTVYLQMTSLKPEDTAVYYCAARYTGKYEREYNYWGQGTQVTVSS | high polyreactivity |
| QVQLEESGGGLVQAGGSLRLSCAASGIIFSGNAMGWYRQAPGKERELVAANTRSGGTTYYADSVKGRFTISRDNAKNTVYLQMNSLKPEDTAVYYCAASYPLYVFYVSGYDYWGQGTQVTVSS | low polyreactivity |
| QVQLVESGGGLVQAGGSLRLSCAASGLIFSAYAMGWYRQAPGKERELVAGISRRGSTYYADSVKGRFTISRDNAKNTVYLQMNSLKPEDTAVYYCAAYFRVRFRASGYDYWGQGTQVTVSS | high polyreactivity |
| QDQLVESGGGLVQAGGSLRLSCAASGLNFRFYAMGWYRTATGKERELVAAISSRGGSTYYAHSVKGRFTISRDNSKNTFYLQMISLKPEDTWVYYCAADYGDEYEYCGQGTQVTVSS | high polyreactivity |
| QVQLVESGGGLVQAGGSLRLSCAASGRIFVPYVMGWYRQAPGKERELVAAISSSGGSTYYADSVKGRFTISRDNAKNTVYLQMNSLKQEDTAVYYCAKPYYFHEEDHWGQGSQVTVSS | low polyreactivity |
| QVQLVESGGCLVQAGGSLRLSCAASGSIFAEYAMGWSRQAPGKERELVASISSRGGRTFYADSVKGRFTISRDNAKNTVYLQMNSLKPEDTAVYYCNALRIYITKKTGYGYWGQGTQVTVSS | high polyreactivity |
| QVQLVESGGGLDQAGGSLRLSCAASGLILRRYDMGWYRQAPGKERELVAAISGSGGRTYYADSVKGRFTISRDNAKNTVYLQMNSLKPEDTAVYYCAAEYSYYYDQYSYDYWGQGTQVTVSS | high polyreactivity |
| QVQLVESGGGLVQAGGSLRLSCSASGRTFLYDMGWYTHATGKELELVAAISRGGSTSYADSVKGRFTISRDNAKNTVYLQMNSLKPEDTAVYYCATRGLVGYYSYYYWGQGTQVTVSS | high polyreactivity |
| QVQLVESGGGLVQAGGSLRLSCAASGSTIFAYAMGWYRQAPGKERELVAAIRRGGTSTYYADSVKGRFTISRDNAKNTVYLQMNSLKPEDTAVYYCNKAYITKRGVSGSNDYWGQGTQVTVSS | low polyreactivity |
| QVQLQESGGGLVQAGGSLRLSCAASGTISDRAGMGWYRQAPAKNAIVATIDRGTNTNYADSVKGRFTISRDNAKNPVYLKMNSLKPEDTAVYNWAADGRYYIYLDYWGQGTQVTVSS | low polyreactivity |
| QVQLVESGGGLVQAGGSLRLSCAASGFTFSSYAMGWYRQAPGKERELVARISSGSSTNYADSVKGRFTISRDNAKNTVYLQMNSLKPEDTAVYYCAARYTARRQSYGYWGQGTQVTVSS | high polyreactivity |
